Values of other authors, collected in US7759315B2, “Treatment of inflammatory conditions of the intestine” (CSL Behring AG, priority 2005, dated 2010).
Non-standard residues stand in square brackets, D forms with d. No end group written: not given here. Orn = NCCC[C@H](N)C(=O)O; Aib = CC(C)(N)C(=O)O

Biological target: T1, LCAT (Homo sapiens, UniProt P04180)
T1 sequence (P04180 25-440): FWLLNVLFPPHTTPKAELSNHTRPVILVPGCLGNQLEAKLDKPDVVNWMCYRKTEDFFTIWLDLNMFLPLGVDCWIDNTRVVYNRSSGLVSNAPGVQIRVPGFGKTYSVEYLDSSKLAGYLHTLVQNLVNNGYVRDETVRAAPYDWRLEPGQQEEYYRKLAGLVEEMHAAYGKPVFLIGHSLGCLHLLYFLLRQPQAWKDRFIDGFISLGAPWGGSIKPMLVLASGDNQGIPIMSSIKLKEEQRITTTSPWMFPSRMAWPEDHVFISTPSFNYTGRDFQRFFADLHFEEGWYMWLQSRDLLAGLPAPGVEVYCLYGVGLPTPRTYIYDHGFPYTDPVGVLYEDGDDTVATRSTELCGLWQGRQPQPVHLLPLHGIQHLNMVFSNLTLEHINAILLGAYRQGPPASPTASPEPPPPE

Going from “pVLDLFRELLEELKQKLK* ([dP]VLDLFRELLEELKQKLK; not fully specified (N-terminus, C-terminus); printed as pVLDLFRELLEELKQKLK*; also: * mark of unstated meaning) [Peptide 214]” to “PVLELFKELLEELKQKLK* (not fully specified (N-terminus, C-terminus); printed as PVLELFKELLEELKQKLK*) [Peptide 195]”, the “ACTIVITY (%) LCAT” value rises from 39% to 87%.

Going from PVLELFERLLDELLNALQKKLK [Peptide 86] to PVLELFDNLLDKLLDALQKKLR [Peptide 180], the “ACTIVITY (%) LCAT” value rises from 7% to 8%.

Compared with PVLDEFREKLNELLEALKQKLK [Peptide 84], “PVLDEFREKLNEXLKALKQKLK (PVLDEFREKLNE[Aib]LKALKQKLK; not fully specified (C-terminus)) [Peptide 93]” is lower in “ACTIVITY (%) LCAT” value: 7% for the first, 5% for the second.

Going from “PVLDEFREKLNELXEALKQKLK (PVLDEFREKLNEL[Aib]EALKQKLK) [Peptide 71]” to PVLELFKELLQELLEALKQKLK [Peptide 17], the “ACTIVITY (%) LCAT” value rises from 11% to 59%.

Compared with “PLLELLKELLEELKQKLK* (not fully specified (N-terminus, C-terminus); printed as PLLELLKELLEELKQKLK*) [Peptide 206]”, PVLDAFRELGEALLQLKK [Peptide 226] is lower in “ACTIVITY (%) LCAT” value: 57% for the first, 1% for the second.

Compared with AVLDLFRELLNELLEALKQKLK [Peptide 29], “PVLDKFREKLNEXLEALKQKLK (PVLDKFREKLNE[Aib]LEALKQKLK; not fully specified (C-terminus)) [Peptide 74]” is lower in “ACTIVITY (%) LCAT” value: 39% for the first, 10% for the second.

Going from PVLDLFREGLNELLEALKQKLK [Peptide 20] to “PVLDLFREGLEELKQKLK* (not fully specified (N-terminus, C-terminus); printed as PVLDLFREGLEELKQKLK*) [Peptide 228]”, the “ACTIVITY (%) LCAT” value falls from 57% to 0%.

Compared with “AVLDLFRELLEELKQKLK* (not fully specified (N-terminus, C-terminus); printed as AVLDLFRELLEELKQKLK*) [Peptide 203]”, pvLDLFRELLNELLEALKQKLK [Peptide 48] is lower in “ACTIVITY (%) LCAT” value: 66% for the first, 22% for the second.

Compared with “~~LDEFREKLNEXLEALKQKLK (LDEFREKLNE[Aib]LEALKQKLK; not fully specified (C-terminus); printed as ~~LDEFREKLNEXLEALKQKLK) [Peptide 82]”, PLLELFENLLEKLLDALQKKLK [Peptide 183] is lower in “ACTIVITY (%) LCAT” value: 8% for the first, 6% for the second.

First: XVLDLFRELLNELLEALKQKLK ([Aib]VLDLFRELLNELLEALKQKLK; not fully specified (C-terminus)) [Peptide 32]
Second: PVLDEFRELLKEXLEALKQKLK (PVLDEFRELLKE[Aib]LEALKQKLK; not fully specified (C-terminus)) [Peptide 68]
The “ACTIVITY (%) LCAT” value of the first is higher: 33% for the first, 14% for the second.

First: PVLDLFRELLNELLE~~~~~~~ [Peptide 97]
Second: PVLDEFREKLNEXLWALKQKLK (PVLDEFREKLNE[Aib]LWALKQKLK; not fully specified (C-terminus)) [Peptide 89]
The “ACTIVITY (%) LCAT” value of the first is lower: 4% for the first, 6% for the second.

“PVLDEFREKLNEXLEALEQKLK (PVLDEFREKLNE[Aib]LEALEQKLK) [Peptide 118]” and “PKLDEFREKLNEXLEALKQKLK (PKLDEFREKLNE[Aib]LEALKQKLK; not fully specified (C-terminus)) [Peptide 115]” are the same in “ACTIVITY (%) LCAT” value: 0% for the first, 0% for the second.

Compared with PVLDLFERLLNELLEALQKKLK [Peptide 80], “PVLDLFRELGEELKQKLK* (not fully specified (N-terminus, C-terminus); printed as PVLDLFRELGEELKQKLK*) [Peptide 227]” is lower in “ACTIVITY (%) LCAT” value: 9% for the first, 0% for the second.

Going from “PVLDEFWEKLNEXLEALKQKLK (PVLDEFWEKLNE[Aib]LEALKQKLK; not fully specified (C-terminus)) [Peptide 73]” to PVLDEFREKLNEELEWLKQKLK [Peptide 122], the “ACTIVITY (%) LCAT” value falls from 10% to 0%.

Going from PVLELFLNLLERLLDALQKKLK [Peptide 156] to PVLELFLNLLERLLDAWQKKLK [Peptide 184], the “ACTIVITY (%) LCAT” value falls from 35% to 4%.

First: PVLDLFRELLEELOQOLO* (PVLDLFRELLEEL[Orn]Q[Orn]L[Orn]; not fully specified (N-terminus, C-terminus); printed as PVLDLFRELLEELOQOLO*) [Peptide 211]
Second: NVLDLFRELLEELKQKLK* (not fully specified (N-terminus, C-terminus); printed as NVLDLFRELLEELKQKLK*) [Peptide 200]
The “ACTIVITY (%) LCAT” value of the first is lower: 45% for the first, 75% for the second.

First: PVLELFDNLLEKLLEALQKKLR [Peptide 178]
Second: PVLDEFRKKLNEXLEALKQKLK (PVLDEFRKKLNE[Aib]LEALKQKLK; not fully specified (C-terminus)) [Peptide 69]
The “ACTIVITY (%) LCAT” value of the first is lower: 9% for the first, 13% for the second.

Compared with PLLELFKELLQELLEALKQKLK [Peptide 23], “pvlelfenllerlldalgkklk ([dP][dV][dL][dE][dL][dF][dE][dN][dL][dL][dE][dR][dL][dL][dD][dA][dL][dQ][dK][dK][dL][dK]) [Peptide 174]” is lower in “ACTIVITY (%) LCAT” value: 54% for the first, 13% for the second.

Going from PVLELFENLLERLFDALQKKLK [Peptide 147] to PVLELFENLLERWLDALQKKLK [Peptide 181], the “ACTIVITY (%) LCAT” value falls from 76% to 8%.

Compared with “PVLDEFREKLWEXLEALKQKLK (PVLDEFREKLWE[Aib]LEALKQKLK; not fully specified (C-terminus)) [Peptide 43]”, “PVLDEFREKLWEXWEALKQKLK (PVLDEFREKLWE[Aib]WEALKQKLK; not fully specified (C-terminus)) [Peptide 111]” is lower in “ACTIVITY (%) LCAT” value: 25% for the first, 0% for the second.

Going from “PVLELFENLLEOLLDALQOOLO (PVLELFENLLE[Orn]LLDALQ[Orn][Orn]L[Orn]) [Peptide 170]” to “PVLDLFRELLEELKNKLK* (not fully specified (N-terminus, C-terminus); printed as PVLDLFRELLEELKNKLK*) [Peptide 196]”, the “ACTIVITY (%) LCAT” value rises from 17% to 81%.

First: PVLDEFREKLNEXLEALKQKL~ (PVLDEFREKLNE[Aib]LEALKQKL; not fully specified (C-terminus); printed as PVLDEFREKLNEXLEALKQKL~) [Peptide 58]
Second: PVLELFKELLEELKQKLK [Peptide 216]
The “ACTIVITY (%) LCAT” value of the first is lower: 18% for the first, 35% for the second.

Compared with “PVLDLLRELLEELKQKLK* (not fully specified (N-terminus, C-terminus); printed as PVLDLLRELLEELKQKLK*) [Peptide 191]”, PVLDLFRELLNELLELLKQKLK [Peptide 127] is lower in “ACTIVITY (%) LCAT” value: 100% for the first, 47% for the second.

Going from “DVLDLFRELLEELKQKLK* (not fully specified (N-terminus, C-terminus); printed as DVLDLFRELLEELKQKLK*) [Peptide 221]” to PVLELFENLGERLLDALQKKLK [Peptide 151], the “ACTIVITY (%) LCAT” value rises from 12% to 55%.

Going from “PVLDLFKELLEELKQKLK* (not fully specified (N-terminus, C-terminus); printed as PVLDLFKELLEELKQKLK*) [Peptide 192]” to PVLELWENLLERLLDALQKKLK [Peptide 176], the “ACTIVITY (%) LCAT” value falls from 100% to 11%.
